Data from patent publication US20200016315A1 (SYDDANSK UNIVERSITET, published 2020).

Columns and labels:
hemoglobin [1] = target: T1, hemoglobin (human, UniProt P69905 2-142; P68871 2-147); experiment: raw plasma without added hemoglobin mixed with equal volume of protein-Sepharose, supernatant on Cobas 6000; not corrected for dilution; no Sepharose 7, sham Sepharose 0
T1 construct: also called Hb; human Hb

hemoglobin [2] = target: T1, hemoglobin; experiment: plasma with 3 g/l added hemoglobin mixed with equal volume of protein-Sepharose, supernatant on Cobas 6000; not corrected for dilution; no Sepharose 80, sham Sepharose 25

Row | Binder | H-index of supernatant (hemoglobin left after removal) (hemoglobin [1]) [mg/dL] | H-index of supernatant (hemoglobin left after removal) (hemoglobin [2]) [mg/dL]
1 | IsdH N1N2N3 (residues 82-655), wild type (receptor, coupled through primary amines to CNBr-activated Sepharose, In the assay the protein was immobilized on Sepharose; also called IsdH N1N2N3 wt; N1N2N3-Seph; not shown: vector-encoded His6 tag of pET-15b) NYPAADESLKDAIKDPALENKEHDIGPREQVNFQLLDKNNETQYYHFFSIKDPADVYYTKKKAEVELDINTASTWKKFEVYENNQKLPVRLVSYSPVPEDHAYIRFPVSDGTQELKIVSSTQIDDGEETNYDYTKLVFAKPIYNDPSLVKSDTNDAVVTNDQSSSVASNQTNTNTSNQNISTINNANNQPQATTNMSQPAQPKSSTNADQASSQPAHETNSNGNTNDKTNESSNQSDVNQQYPPADESLQDAIKNPAIIDKEHTADNWRPIDFQMKNDKGERQFYHYASTVEPATVIFTKTGPIIELGLKTASTWKKFEVYEGDKKLPVELVSYDSDKDYAYIRFPVSNGTREVKIVSSIEYGENIHEDYDYTLMVFAQPITNNPDDYVDEETYNLQKLLAPYHKAKTLERQVYELEKLQEKLPEKYKAEYKKKLDQTRVELADQVKSAVTEFENVTPTNDQLTDLQEAHFVVFESEENSESVMDGFVEHPFYTATLNGQKYVVMKTKDDSYWKDLIVEGKRVTTVSKDPKNNSRTLIFPYIPDKAVYNAIVKVVVANIGYEGQYHVRIINQDI | 0 | 12
2 | IsdH N1N2N3 Y642A (receptor, coupled through primary amines to CNBr-activated Sepharose, also called N1N2N3-Y642A-Seph; Y642A mutant; not shown: vector-encoded His6 tag of pET-15b) NYPAADESLKDAIKDPALENKEHDIGPREQVNFQLLDKNNETQYYHFFSIKDPADVYYTKKKAEVELDINTASTWKKFEVYENNQKLPVRLVSYSPVPEDHAYIRFPVSDGTQELKIVSSTQIDDGEETNYDYTKLVFAKPIYNDPSLVKSDTNDAVVTNDQSSSVASNQTNTNTSNQNISTINNANNQPQATTNMSQPAQPKSSTNADQASSQPAHETNSNGNTNDKTNESSNQSDVNQQYPPADESLQDAIKNPAIIDKEHTADNWRPIDFQMKNDKGERQFYHYASTVEPATVIFTKTGPIIELGLKTASTWKKFEVYEGDKKLPVELVSYDSDKDYAYIRFPVSNGTREVKIVSSIEYGENIHEDYDYTLMVFAQPITNNPDDYVDEETYNLQKLLAPYHKAKTLERQVYELEKLQEKLPEKYKAEYKKKLDQTRVELADQVKSAVTEFENVTPTNDQLTDLQEAHFVVFESEENSESVMDGFVEHPFYTATLNGQKYVVMKTKDDSYWKDLIVEGKRVTTVSKDPKNNSRTLIFPYIPDKAVYNAIVKVVVANIGAEGQYHVRIINQDI | 0 | 8
3 | IsdH^N1 (residues 86-229) with N-terminal His6 tag and thrombin cleavage site (receptor, coupled through primary amines to CNBr-activated Sepharose, also called N1 Seph; not shown: added N-terminal His6 tag and thrombin cleavage site) DIGPREQVNFQLLDKNNETQYYHFFSIKDPADVYYTKKKAEVELDINTASTWKKFEVYENNQKLPVRLVSYSPVPEDHAYIRFPVSDGTQELKIVSSTQIDDGEETNYDYTKLVFAKPIYNDPSL | 0 | 29
